Where two headings read alike, the source gives them in different places.

Assay in all cases: cell-based or functional assay
The target in one assay is factor Xa (human) (UniProt P00742).
Another assay concerns the target thrombin (human) (UniProt P00734).
Assay [1] concerns the target human neutrophil cathepsin G (human) (UniProt P08311).
Assay [2] deals with human neutrophil elastase (human) (UniProt P08246).
Sequence of human neutrophil elastase (human) (P08246 30-247 limits assumed): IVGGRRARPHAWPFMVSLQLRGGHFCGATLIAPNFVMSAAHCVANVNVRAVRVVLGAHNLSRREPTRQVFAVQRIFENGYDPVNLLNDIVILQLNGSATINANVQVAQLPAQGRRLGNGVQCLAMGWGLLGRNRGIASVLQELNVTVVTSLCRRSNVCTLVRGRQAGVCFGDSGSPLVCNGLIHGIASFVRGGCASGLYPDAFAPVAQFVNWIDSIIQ

Sequence of human neutrophil cathepsin G (human) (P08311 21-244 limits assumed): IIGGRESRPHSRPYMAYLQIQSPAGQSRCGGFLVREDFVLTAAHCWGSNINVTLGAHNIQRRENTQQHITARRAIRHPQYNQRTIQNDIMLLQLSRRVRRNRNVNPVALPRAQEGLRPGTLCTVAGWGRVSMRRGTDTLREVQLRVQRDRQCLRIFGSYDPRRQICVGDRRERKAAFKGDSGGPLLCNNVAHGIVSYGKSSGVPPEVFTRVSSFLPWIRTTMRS

In the assay with factor Xa (human), “ATIII S137A (from UniProt P01008 33-464)” showed an IC50 fXa/UFH; HCA #4 of 0.012 µM, a rsd. Xa catG; CA #6; stg1 conc 200 (% of no-ATIII control) of 0, a rsd. Xa catG; CA #13; stg1 conc 200 (% of no-ATIII control) of 1 and a rsd. Xa hne; CA #6; stg1 conc 200 (% of no-ATIII control) of 81. Moreover, in the assay with factor Xa (human), the rsd. Xa hne; CA #13; stg1 conc 200 (% of no-ATIII control) was determined as 87, the rsd. Xa no add; CA #6; stg1 conc 200 (% of no-ATIII control) came out at 0 and the rsd. Xa no add; CA #13; stg1 conc 200 (% of no-ATIII control) amounted to 2. In the assay with thrombin (human), this substance displayed an IC50 IIa/UFH; HCA #4 of 0.013 µM, a rsd. IIa catG; CA #6; stg1 conc 200 (% of no-ATIII control) of 0, a rsd. IIa catG; CA #13; stg1 conc 200 (% of no-ATIII control) of 1 and a rsd. IIa hne; CA #6; stg1 conc 200 (% of no-ATIII control) of 81. In the assay with thrombin (human), this substance came in with a rsd. IIa hne; CA #13; stg1 conc 200 (% of no-ATIII control) of 89, a rsd. IIa no add; CA #6; stg1 conc 200 (% of no-ATIII control) of 0 and a rsd. IIa no add; CA #13; stg1 conc 200 (% of no-ATIII control) of 4.
In the assay with factor Xa (human), “ATIII N135A (from UniProt P01008 33-464)” registered an IC50 fXa/UFH; HCA #2 of 0.017 µM, a rsd. Xa catG; CA #8; stg1 conc 200 of 1%, a rsd. Xa catG; CA #8; stg1 conc 200 (% of no-ATIII control) of 1 and a rsd. Xa catG; CA #9; stg1 conc 200 of 1%. In the assay with factor Xa (human), the rsd. Xa catG; CA #9; stg1 conc 200 (% of no-ATIII control) worked out at 1, the rsd. Xa hne; CA #8; stg1 conc 200 amounted to 90%, the rsd. Xa hne; CA #8; stg1 conc 200 (% of no-ATIII control) turned out to be 90 and the rsd. Xa hne; CA #9; stg1 conc 200 is 106%. Also, in the assay with factor Xa (human), the rsd. Xa hne; CA #9; stg1 conc 200 (% of no-ATIII control) came out at 106, the rsd. Xa no add; CA #8; stg1 conc 200 came out at 1%, the rsd. Xa no add; CA #8; stg1 conc 200 (% of no-ATIII control) is 1 and the rsd. Xa no add; CA #9; stg1 conc 200 (% of no-ATIII control) came out at 2. This substance yielded an IC50 fXa/UFH; HCA #2 in the assay with factor Xa (human) (record 2) of 0.017 µM. In the assay with thrombin (human), this substance had a rsd. IIa catG; CA #8; stg1 conc 200 of 0%, a rsd. IIa catG; CA #8; stg1 conc 200 (% of no-ATIII control) of 0, a rsd. IIa catG; CA #9; stg1 conc 200 of 2% and a rsd. IIa catG; CA #9; stg1 conc 200 (% of no-ATIII control) of 2. For the same substance, in the assay with thrombin (human), the rsd. IIa hne; CA #8; stg1 conc 200 turned out to be 90%, the rsd. IIa hne; CA #8; stg1 conc 200 (% of no-ATIII control) was 90, the rsd. IIa hne; CA #9; stg1 conc 200 amounted to 100% and the rsd. IIa hne; CA #9; stg1 conc 200 (% of no-ATIII control) is 100. In the assay with thrombin (human), the rsd. IIa no add; CA #8; stg1 conc 200 was 1%, the rsd. IIa no add; CA #8; stg1 conc 200 (% of no-ATIII control) was 1, the rsd. IIa no add; CA #9; stg1 conc 200 was 2% and the rsd. IIa no add; CA #9; stg1 conc 200 (% of no-ATIII control) stood at 2.
Regarding “plasma-derived ATIII (from UniProt P01008 33-464)”, in the assay with factor Xa (human), the IC50 fXa/UFH; HCA #4 amounted to 0.013 µM, the rsd. Xa catG; CA #12; stg1 conc 200 turned out to be 1%, the rsd. Xa catG; CA #17; stg1 conc 3 was found to be 77% and the rsd. Xa catG; CA #17; stg1 conc 7 was 12%. Further, in the assay with factor Xa (human), the rsd. Xa catG; CA #17; stg1 conc 23 is -7%, the rsd. Xa hne; CA #14; stg1 conc 200 came to 101%, the rsd. Xa hne; CA #17; stg1 conc 23 is 98% and the rsd. Xa no add; CA #17; stg1 conc 1 was 90%. Moreover, in the assay with factor Xa (human), the rsd. Xa no add; CA #17; stg1 conc 3 was found to be 75% and the rsd. Xa no add; CA #17; stg1 conc 23 is 1%. The substance also showed an IC50 fXa/UFH; HCA #4 with factor Xa (human) (record 2) of 0.013 µM. Also, the rsd IIa, catG (CA #14, stg 1 conc 200) in assay [1] is 1%. Moreover, in assay [2], the halflife, min (HNE/hep) was determined as 2.9 min; the rsd IIa, HNE (CA #14, stg 1 conc 200) amounted to 100%; the rsd Xa, HNE (CA #14, stg 1 conc 200) was 101%.
In the assay with factor Xa (human), “human plasma-derived ATIII (from UniProt P01008 33-464)” registered an IC50 fXa/UFH; HCA #4 of 0.013 µM, a rsd. Xa catG; CA #12; stg1 conc 200 (% of no-ATIII control) of 1, a rsd. Xa catG; CA #17; stg1 conc 3 (% of no-ATIII control) of 77 and a rsd. Xa catG; CA #17; stg1 conc 7 (% of no-ATIII control) of 12. Also, in the assay with factor Xa (human), the rsd. Xa catG; CA #17; stg1 conc 23 (% of no-ATIII control) was -7, the rsd. Xa hne; CA #14; stg1 conc 200 (% of no-ATIII control) amounted to 101, the rsd. Xa hne; CA #17; stg1 conc 23 (% of no-ATIII control) was determined as 98 and the rsd. Xa no add; CA #17; stg1 conc 1 (% of no-ATIII control) amounted to 90. In the assay with factor Xa (human), this substance gave a rsd. Xa no add; CA #17; stg1 conc 3 (% of no-ATIII control) of 75 and a rsd. Xa no add; CA #17; stg1 conc 23 (% of no-ATIII control) of 1.

For the origin of these results see US20060259987A1.
